The source of these data is IntAct's records for PubMed 19675567.

B1: ATPase GET3 (Saccharomyces cerevisiae), Q12154 (parent)
chain: MDLTVEPNLHSLITSTTHKWIFVGGKGGVGKTTSSCSIAIQMALSQPNKQFLLISTDPAHNLSDAFGEKFGKDARKVTGMNNLSCMEIDPSAALKDMNDMAVSRANNNGSDGQGDDLGSLLQGGALADLTGSIPGIDEALSFMEVMKHIKRQEQGEGETFDTVIFDTAPTGHTLRFLQLPNTLSKLLEKFGEITNKLGPMLNSFMGAGNVDISGKLNELKANVETIRQQFTDPDLTTFVCVCISEFLSLYETERLIQELISYDMDVNSIIVNQLLFAENDQEHNCKRCQARWKMQKKYLDQIDELYEDFHVVKMPLCAGEIRGLNNLTKFSQFLNKEYNPITDGKVIYELEDKE

In this test the parent is B1. As to conditions: with sc61b_human SEC61B.
For the variant C285S;C288S, the “effect of a mutation on the interaction” value is recorded as “decreasing interaction”.
